In PMC2783965:
Like-named read-outs stand apart in the source and are kept apart here.

Tests used:
Assay in all cases: FRET or BRET
[1] = molecular target: 43S pre-initiation complex without eIF1 (40S•eIF1A-TAMRA•TC) (S. cerevisiae) (UniProt P38912)
[2] = molecular target: 43S pre-initiation complex without eIF1 (40S•eIF1A-TAMRA•TC) (S. cerevisiae) (UniProt P38912); remark: listed apart in the source
[3] = molecular target: 43S pre-initiation complex without eIF1 (40S•eIF1A-TAMRA•TC) (S. cerevisiae) (UniProt P38912); remark: listed apart in the source
[4] = molecular target: 43S pre-initiation complex without eIF1 (40S•eIF1A-TAMRA•TC) (S. cerevisiae) (UniProt P38912); remark: listed apart in the source
[5] = molecular target: 43S pre-initiation complex without eIF1 (40S•eIF1A-TAMRA•TC) (S. cerevisiae) (UniProt P38912); remark: listed apart in the source

Sequence of UniProt P38912 (P38912 whole entry, looked up, one chain of several): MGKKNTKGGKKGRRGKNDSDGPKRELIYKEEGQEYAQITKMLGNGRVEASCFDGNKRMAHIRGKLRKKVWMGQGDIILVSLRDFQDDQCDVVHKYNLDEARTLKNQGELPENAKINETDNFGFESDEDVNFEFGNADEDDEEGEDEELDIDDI

| kobs of eIF1 dissociation (slow phase) [1] [s⁻¹] | kobs of eIF1 dissociation (slow phase) [2] [s⁻¹] | kobs of eIF1 dissociation (slow phase) [3] [s⁻¹] | kobs of eIF1 dissociation (slow phase) [4] [s⁻¹] | kobs of eIF1 dissociation (slow phase) [5] [s⁻¹] | Substance |
| --- | --- | --- | --- | --- | --- |
| 0.08 | 0.1 |  |  |  | fluorescein-labeled G107K eIF1 (from UniProt P32911 1-108) (natural protein) |
| 0.13 | 0.4 | 0.14 | 0.56 | 0.4 | fluorescein-labeled WT eIF1 (from UniProt P32911 1-108) (natural protein) |
